From patent US20230086603A1 (BOLT BIOTHERAPEUTICS, published 2023)

Target: T1, human PD-L1 (hPD-L1) (human, UniProt Q9NZQ7 19-290)
T1 construct: Endogenous hPD-L1 on JIMT1 (JIMT-1) cells; also called programmed death-ligand 1; CD274
Test: flow cytometry on JIMT-1 cells expressing endogenous human PD-L1; anti-human IgG Fc secondary; geometric MFI
Procedure: Binding of the binding agents of an embodiment of the invention to human PD-L1 (hPD-L1) on cell surfaces was assessed by incubating the binding agents with JIMT1 cells that express endogenous hPD-L1. Briefly, the binding agents were diluted serially in FACS buffer (PBS+1% FBS+5 mM EDTA, pH 7.4) at 4° C. Diluted binding agents were applied to JIMT1 cells (˜1×10⁵-2×10⁵ per well) and incubated at 4° C. […] After unbound secondary antibody was washed out, cells were resuspended in FACS buffer plus 2% formaldehyde and analyzed by flow cytometry. The intensity of fluorescence, expressed as geometric mean fluorescence intensity, was used to determine anti-PDL1 binding agent binding to hPD-L1 on cell surface.

T1 sequence (Q9NZQ7 19-290 limits assumed): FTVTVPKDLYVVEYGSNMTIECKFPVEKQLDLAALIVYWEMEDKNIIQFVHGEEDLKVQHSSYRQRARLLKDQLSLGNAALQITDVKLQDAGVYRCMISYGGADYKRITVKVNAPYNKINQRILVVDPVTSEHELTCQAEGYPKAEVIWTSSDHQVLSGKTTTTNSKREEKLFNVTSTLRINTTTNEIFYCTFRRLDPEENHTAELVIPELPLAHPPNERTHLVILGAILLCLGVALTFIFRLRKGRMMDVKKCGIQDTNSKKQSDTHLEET

Row | binding result | Binder
1 | binds | 12 (antibody, V domains shown) VH: QVQLVQSGAEVKKPGASVKVSCKASGGTFSNYMYHWVRQAPGQGLEWMGWISTYHGSTNYAQKFQGRVTMTRDTSTSTVYMELSSLRSEDTAVYYCARDARGYSGYDLWGQGTLVTVSS VL: DIQMTQSPSSLSASVGDRVTITCRASQIIGNYLAWYQQKPGKAPKLLIYHASILETGVPSRFSGSGSGTDFTLTISSLQPEDFATYYCQQSYSTPTFGGGTKVEIK
2 | binds | 9 (antibody, V domains shown) VH: QVQLVQSGAEVKKPGASVKVSCKASGHSFTHYYMHWVRQAPGQGLEWMGWMNPDSGSTGYAQKFQGRVTMTRDTSTSTVYMELSSLRSEDTAVYYCARALFPYPFYYYYMDVWGQGTLVTVSS VL: DIQMTQSPSSLSASVGDRVTITCRASQGIRNDLGWYQQKPGKAPKLLIYSASNLQSGVPSRFSGSGSGTDFTLTISSLQPEDFATYYCQQANSFPFTFGGGTKVEIK
3 | binds | 13 (antibody, V domains shown) VH: QVQLVQSGAEVKKPGASVKVSCKASGYPFTSYYMHWVRQAPGQGLEWMGWMNPNSDIAGYAQKFQGRVTMTRDTSTSTVYMELSSLRSEDTAVYYCAREGRHGEYLYWGQGTLVTVSS VL: DIQMTQSPSSLSASVGDRVTITCRASQIISSYLNWYQQKPGKAPKLLIYAASSLQSGVPSRFSGSGSGTDFTLTISSLQPEDFATYYCQQGFSTPFTFGGGTKVEIK
4 | binds | 16 (antibody, V domains shown) VH: QVQLVQSGAEVKKPGSSVKVSCKASGGTFSSYAISWVRQAPGQGLEWMGGIIPIFGTANYAQKFQGRVTITADESTSTAYMELSSLRSEDTAVYYCARGGYSYGSFQHWGQGTLVTVSS VL: DIQMTQSPSSLSASVGDRVTITCRASQGISNNLNWYQQKPGKAPKLLIYAATTLQSGVPSRFSGSGSGTDFTLTISSLQPEDFATYYCQQSYSTPYTFGGGTKVEIK
5 | binds | 36 (antibody, V domains shown) VH: QVQLVQSGAEVKKPGSSVKVSCKASGGTFSTFGISWVRQAPGQGLEWMGGIIPIFGTANYAQKFQGRVTITADESTSTAYMELSSLRSEDTAVYYCARGGYSYGSFDYWGQGTLVTVSS VL: DIQMTQSPSSLSASVGDRVTITCRASQGISNNLNWYQQKPGKAPKLLIYATSTLQSGVPSRFSGSGSGTDFTLTISSLQPEDFATYYCQQSYSTPYTFGQGTKVEIK
6 | binds | 11 (antibody, V domains shown) VH: QVQLVQSGAEVKKPGASVKVSCKASGYTFTNYYIHWVRQAPGQGLEWLGWMNPNGDVAGYADSFQGRVTMTRDTSTSTVYMELSSLRSEDTAVYYCAIDSSGWMRNDAFDIWGQGTLVTVSS VL: DIQMTQSPSSLSASVGDRVTITCRASQGISQYLAWYQQKPGKAPKLLIYGASNLHSGVPSRFSGSGSGTDFTLTISSLQPEDFATYYCQQTFITPLTFGGGTKVEIK
7 | binds | 2 (antibody, V domains shown) VH: QVQLVQSGAEVKKPGASVKVSCKASGYTFTSYYMHWVRQAPGQGLEWMGWMNPNSDIAGYAQKFQGRVTMTRDTSTSTVYMELSSLRSEDTAVYYCAIPSIVGAYDAFDIWGQGTLVTVSS VL: DIQMTQSPSSLSASVGDRVTITCRASQSISSWLAWYQQKPGKAPKLLIYAASSLQSGVPSRFSGSGSGTDFTLTISSLQPEDFATYYCQQSYTTPITFGGGTKVEIK
8 | binds | 17 (antibody, V domains shown) VH: QVQLVQSGAEVKKPGASVKVSCKASGDTFTRHYVHWVRQAPGQGLEWMGWMSPSSGITGYAQKFQGRVTMTRDTSTSTVYMELSSLRSEDTAVYYCARVRWSSDAFDIWGQGTLVTVSS VL: not shown
9 | binds | 14 (antibody, V domains shown) VH: QVQLVQSGAEVKKPGASVKVSCKASGYRFTTYYVHWVRQAPGQGLEWMGWMNPNTVYTGSAQKFQGRVTMTRDTSTSTVYMELSSLRSEDTAVYYCAREGWGSSGYFDYWGQGTLVTVSS VL: DIQMTQSPSSLSASVGDRVTITCQASQDISNYLNWYQQKPGKAPKLLIYAASSLQSGVPSRFSGSGSGTDFTLTISSLQPEDFATYYCQQSFTNPVTFGGGTKVEIK
